Results published in paper PMC9976877, “The Ku complex promotes DNA end-bridging and this function is antagonized by Tel1/ATM kinase”.

Assays:
[1] = biological target: T1, Ku70-Strep (wild type);Ku80-6xHis (Saccharomyces cerevisiae;Saccharomyces …, UniProt P32807;Q04437 1-602;1-629, |); assay: EMSA; 13 nM DNA; 0-104 nM Ku; shift detectable at 4-fold ratio of Ku to DNA; 2 mM MgCl2; EMSA: 25 mM Tris/HCl pH 7.5, 100 mM NaCl, 2 mM MgCl2, 7% glycerol, 1 mM DTT, 30 min on ice; 6% native gel at 4 °C; details: protein: recombinant;recombinant; tags: Strep;6xHis; copies: 1;1; label: 32P; blunt
T1 sequence 1: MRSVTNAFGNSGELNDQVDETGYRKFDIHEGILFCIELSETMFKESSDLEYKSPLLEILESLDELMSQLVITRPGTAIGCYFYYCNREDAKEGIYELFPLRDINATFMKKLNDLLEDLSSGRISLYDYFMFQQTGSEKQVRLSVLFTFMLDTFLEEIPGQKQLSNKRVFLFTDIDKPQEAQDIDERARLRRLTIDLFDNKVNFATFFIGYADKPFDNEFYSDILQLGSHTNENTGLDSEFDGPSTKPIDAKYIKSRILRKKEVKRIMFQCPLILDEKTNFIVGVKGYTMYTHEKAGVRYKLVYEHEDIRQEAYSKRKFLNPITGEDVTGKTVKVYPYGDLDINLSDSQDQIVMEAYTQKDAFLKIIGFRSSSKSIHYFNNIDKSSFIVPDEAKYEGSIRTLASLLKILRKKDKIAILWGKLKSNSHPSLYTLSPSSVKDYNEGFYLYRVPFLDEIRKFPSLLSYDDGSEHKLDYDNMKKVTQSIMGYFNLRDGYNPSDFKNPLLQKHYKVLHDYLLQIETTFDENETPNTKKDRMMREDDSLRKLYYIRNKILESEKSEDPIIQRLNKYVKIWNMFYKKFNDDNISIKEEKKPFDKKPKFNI
T1 sequence 2: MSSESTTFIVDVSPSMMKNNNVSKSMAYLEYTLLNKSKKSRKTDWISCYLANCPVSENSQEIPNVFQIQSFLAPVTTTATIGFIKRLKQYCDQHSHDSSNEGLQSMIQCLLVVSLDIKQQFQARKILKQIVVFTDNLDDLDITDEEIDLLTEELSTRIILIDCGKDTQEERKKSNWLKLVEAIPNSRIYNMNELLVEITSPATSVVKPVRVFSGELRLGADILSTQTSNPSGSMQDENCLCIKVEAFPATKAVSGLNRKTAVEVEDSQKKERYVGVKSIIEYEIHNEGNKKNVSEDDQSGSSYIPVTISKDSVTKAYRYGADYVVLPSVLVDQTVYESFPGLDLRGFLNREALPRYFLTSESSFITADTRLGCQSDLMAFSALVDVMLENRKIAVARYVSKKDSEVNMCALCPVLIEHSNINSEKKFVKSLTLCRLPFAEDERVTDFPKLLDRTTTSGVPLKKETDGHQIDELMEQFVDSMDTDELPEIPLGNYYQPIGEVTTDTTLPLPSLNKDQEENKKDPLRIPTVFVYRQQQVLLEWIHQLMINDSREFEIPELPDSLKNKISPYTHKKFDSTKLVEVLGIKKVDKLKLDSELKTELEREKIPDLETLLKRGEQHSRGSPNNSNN

[2] = biological target: T2, Ku70 C85Y-Strep;Ku80-6xHis (Saccharomyces cerevisiae;Saccharomyces …, UniProt P32807;Q04437 1-602;1-629, C85Y|); assay: EMSA; 13 nM DNA; 0-104 nM Ku; shift detectable at 2-fold ratio of Ku to DNA (stronger than wild type); 2 mM MgCl2; EMSA: 25 mM Tris/HCl pH 7.5, 100 mM NaCl, 2 mM MgCl2, 7% glycerol, 1 mM DTT, 30 min on ice; 6% native gel at 4 °C; details: protein: recombinant;recombinant; tags: Strep;6xHis; copies: 1;1; label: 32P; blunt
T2 sequence 1: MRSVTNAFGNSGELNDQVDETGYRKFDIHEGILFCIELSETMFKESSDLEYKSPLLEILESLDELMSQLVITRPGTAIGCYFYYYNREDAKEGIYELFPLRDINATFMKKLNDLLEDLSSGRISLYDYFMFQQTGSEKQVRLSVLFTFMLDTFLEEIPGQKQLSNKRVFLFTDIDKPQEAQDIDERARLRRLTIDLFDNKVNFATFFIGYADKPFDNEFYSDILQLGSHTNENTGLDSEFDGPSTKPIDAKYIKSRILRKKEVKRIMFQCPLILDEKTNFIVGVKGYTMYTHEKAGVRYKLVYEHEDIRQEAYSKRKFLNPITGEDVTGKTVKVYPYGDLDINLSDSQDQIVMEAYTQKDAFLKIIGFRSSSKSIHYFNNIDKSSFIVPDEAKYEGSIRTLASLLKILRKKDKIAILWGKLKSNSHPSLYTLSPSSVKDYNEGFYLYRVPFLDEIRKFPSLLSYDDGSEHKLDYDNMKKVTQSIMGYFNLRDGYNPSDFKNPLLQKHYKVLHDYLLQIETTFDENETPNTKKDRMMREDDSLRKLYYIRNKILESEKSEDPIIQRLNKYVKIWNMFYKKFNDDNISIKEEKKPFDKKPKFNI
T2 sequence 2: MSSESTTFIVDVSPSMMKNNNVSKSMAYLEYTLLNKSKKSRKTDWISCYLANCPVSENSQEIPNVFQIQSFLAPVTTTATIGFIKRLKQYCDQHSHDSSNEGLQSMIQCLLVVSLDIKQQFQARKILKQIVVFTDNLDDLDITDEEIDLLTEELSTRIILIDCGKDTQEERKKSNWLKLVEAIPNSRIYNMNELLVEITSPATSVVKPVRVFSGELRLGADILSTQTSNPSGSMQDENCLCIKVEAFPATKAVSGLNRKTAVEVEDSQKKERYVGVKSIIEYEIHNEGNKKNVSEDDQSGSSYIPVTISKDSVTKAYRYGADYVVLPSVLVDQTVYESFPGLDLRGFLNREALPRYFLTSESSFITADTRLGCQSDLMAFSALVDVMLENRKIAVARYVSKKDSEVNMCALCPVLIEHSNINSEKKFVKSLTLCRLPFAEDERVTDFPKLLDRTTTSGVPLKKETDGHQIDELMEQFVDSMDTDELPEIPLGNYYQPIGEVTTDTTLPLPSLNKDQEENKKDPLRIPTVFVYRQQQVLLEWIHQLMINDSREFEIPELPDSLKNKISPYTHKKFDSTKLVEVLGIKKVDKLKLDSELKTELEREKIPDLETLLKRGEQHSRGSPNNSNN

B1: 21 bp blunt-ended dsDNA (dsDNA)
DNA 1: CCGCACACCCACACACCAGTG
DNA 2: CACTGGTGTGTGGGTGTGCGG
binding result [1]: binds | binding result [2]: binds
